Data on 167 variants can be found in the RNAGym collection of RNA variant scans (doi:10.1073/pnas.2313332121).

B1: TPR t1 (parent)
chain: GACCAAUCUGCCCUCAGAGCUCGAGAACAUCUUCGGAUGCAGAGGAGGCAGGCUUCGGUGGCGCGAUAGCGCCAACGUCCUCAACCUCCAAUGCAUCCCACCACAUGAUGAUGCCUGAAGAGCCUUGGUUUUUUG

The data set covers variants of B1. Briefly: polymerase ribozyme fitness, log enrichment relative to wild type (log ratio); higher = more active; in vitro selection for triplet polymerase activity. The method, boiled down:
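Each subunit of a heterodimeric triplet polymerase ribozyme was mutagenized into a library by PCR, transcribed, and subjected to one round of in vitro selection, run in triplicate. Libraries were annealed with a biotinylated primer, the partner subunit and triplets, incubated frozen at −7 °C, and extended constructs were gel-excised, captured on streptavidin beads and recovered by RT-PCR. Input and output libraries were sequenced on Illumina, keeping genotypes with ≥10 input reads and ≥1 read per output. Fitness is log base 2 of genotype enrichment divided by wild-type enrichment, from inverse-variance-weighted replicate averages.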
Take C22U C31G G63C C82A U87C U112A: the “polymerase ribozyme fitness (log ratio)” value was -6.33.
In the case of C8G C49U G127A it was -1.03; in that of A83U A108U, -5.5.
In the case of A50U C62G U112G it was -5.81.
For C70G C102A, the “polymerase ribozyme fitness (log ratio)” value was -5.59.
On to A27C C62U U92G, for which the “polymerase ribozyme fitness (log ratio)” value was -5.85.
In the case of C94G C114G G120C it was -4.95.
In the case of A5G C114A it was -1.2; in that of C53A G71C C86U, -3.57; in that of C76U U112A, 0.984.
The figure for A6U C8U C40U A43U G48C U132A is -1.71; for A5U C62U it is -0.31.
On to C8G A46G C56A A84C C104A C115U A118U A119U, for which the “polymerase ribozyme fitness (log ratio)” value is -4.77.
As to A18G G42A G63U G113A U132A, the “polymerase ribozyme fitness (log ratio)” value was -3.41.
In the case of U21C A24G A26G C53G G60U it was -5.16; in that of C13U G61U U129A G135U, -0.936; in that of C98A C101U G110U G120U C123G U130G, -5.9.
As for G10U C72G A91G, the “polymerase ribozyme fitness (log ratio)” value is -1.95.
The figure for A50C C82A is -0.499; for C3U C13U C70U G128U it is -1.99; for G23A C56G A95U U112A G127C it is -6.5.
In the case of G17U U96C it was -3.71; in that of G47C C56G, -1.79.
The figure for C40A A66U C72G C94U is -3.54; for G44U U92C it is -1.82; for U59A C80U it is -0.689.
U30C C86A G135C: the “polymerase ribozyme fitness (log ratio)” value was -4.17.
In the case of G39U G69A U78A G120C U133C it was -2.17.
The figure for C62U C82U C124A is 1.29; for C79U C94U it is -0.702; for C3A C102U it is -2.94.
In the case of A5G U38G G39C it was -3.2; in that of C34A G120C, -1.97.
Turning to C8G C13U G47C A74G, the “polymerase ribozyme fitness (log ratio)” value was -0.735.
The figure for U55G U132C is -0.153.
The figure for G45U C123A is -0.805.
The figure for U9G C76G A90C C101U is -1.34; for A95G G117A U133A it is -1.23.
For the variant G10A A29G G113A U130A, the “polymerase ribozyme fitness (log ratio)” value is -3.73.
In the case of C82G G128A U133G it was -2.64; in that of G10A U106A, 0.457; in that of G58A G69A C88G A121U, -2.86.
In the case of A43U G52C C72U it was -2.16; in that of G107A U130G, -6.83.
For the variant C34G C53A, the “polymerase ribozyme fitness (log ratio)” value was -5.71.
The figure for U9C C13A A27U G44C G48U C62U U112A is -2.71; for C8A U133A it is 0.119.
Regarding C28A C73A C124G, the “polymerase ribozyme fitness (log ratio)” value was -3.22.
For C4U C13U G42U U55C G71A, the “polymerase ribozyme fitness (log ratio)” value is -2.58.
The figure for G36U A84C G110A is -2.43.
In the case of G45A G48U C53G C72A it was -0.719; in that of G47C C85G, -2.21; in that of C73U U92A G93A, -4.03.
In the case of U21C C49A U78G C123A it was -1.05.
In the case of C40U C64U C85U A100G U106C U112C, the “polymerase ribozyme fitness (log ratio)” value was -2.44.
In the case of A83U G120U it was -1.06; in that of C11G G35A G60C C98U, -1.01; in that of C53G U78C C114U U132A, -2.19.
The figure for C15G A16U G61U G122U C123U is -2.55; for G60U G128A it is -1.69.
The figure for A29G G47A G51U C123G U129A U133G is -5.68; for C53A G71U C85A it is -0.672.
C64A C123U: the “polymerase ribozyme fitness (log ratio)” value was -4.1.
C3G A6U: the “polymerase ribozyme fitness (log ratio)” value was -4.02.
In the case of C11G G48A C82U G122U it was 0.0866.
In the case of U9C C22U C34A A43G G77A U106A it was -7.59; in that of G19U C88U, -3.2; in that of C3A A16C U78G C79U, -4.42.
The figure for C15U C62U is -1.95; for U9C G60A C80U C89U it is -1.82.
For C12G A37U G61C, the “polymerase ribozyme fitness (log ratio)” value was -1.78.
The figure for C40A C101U is -1.61; for C53G A75U C88A it is -0.918.
The figure for C56A G128U U129G is -0.991; for G45A it is -0.788.
The figure for G39A G57U U116A U125A is -4.53.
With A29U U54A G71C, the “polymerase ribozyme fitness (log ratio)” value is -1.61.
In the case of U32C G57U it was -0.164; in that of G63A G110U, -3.42; in that of A5G C11A C70A G71A A121C G122U G127A, -3.67.
In the case of U30A C88U it was -5.1; in that of G51C G60C A75U, -2.9; in that of G58C, 0.031.
The figure for G57A G61A is -0.154; for A29C U55G G60U A75U it is -2.08; for U9A G71A it is 0.174.
Take C49A C70A C97A G120U U130G: the “polymerase ribozyme fitness (log ratio)” value was -6.14.
In the case of A74C U87G U129C, the “polymerase ribozyme fitness (log ratio)” value was -0.576.
U129G U133A: the “polymerase ribozyme fitness (log ratio)” value is -2.
In the case of C11U C34A G48U U87A it was -5.34; in that of U7C C101A, -0.57.
Regarding U21G C72A A121U, the “polymerase ribozyme fitness (log ratio)” value is 0.876.
In the case of G107A, the “polymerase ribozyme fitness (log ratio)” value was -4.86.
The figure for C13G C53G is -1.53.
In the case of C13U A29U it was -1.8; in that of A41G C73G G93C, -2.94.
In the case of C11U A29G C53U C73G it was -1.9.
As to U30G G69U U78G, the “polymerase ribozyme fitness (log ratio)” value was -3.84.
The figure for G57U C88A is -1.1; for U21C C72U G93A U96G it is -2.4.
The figure for U78C C82U C123G G127C is -1.21.
In the case of G10U G51C it was -3.01; in that of C8G C80G G113U, -5.81; in that of G39C U78C, -1.14.
For A6C A29U A91C, the “polymerase ribozyme fitness (log ratio)” value was -4.88.
C49A G61C C88U G117A G135C: the “polymerase ribozyme fitness (log ratio)” value is -3.6.
U33C C72U: the “polymerase ribozyme fitness (log ratio)” value was -3.04.
In the case of G45U C62U it was -1.63; in that of A29G C31G U55G C124U, -6.79.
The figure for C88A C101G A119U is -3.66; for U14C G77C G113A it is -5.53.
In the case of A2G C12A C15U G45U U106A it was -3.92; in that of A29U C62A U112C G127C, -3.28; in that of C79A A111G, -0.997.
Turning to A2C C4U G10A G57C G61U, the “polymerase ribozyme fitness (log ratio)” value was -2.37.
Take G44A G60C A111U: the “polymerase ribozyme fitness (log ratio)” value was -5.02.
In the case of A26U C123A it was -2.9.
The figure for U7G C34U G58A is -5.02.
The figure for A50G C56U G69C C123G C124G is -5.93; for G48C C64G C124U it is -5.87.
Turning to C8G A29U U132C, the “polymerase ribozyme fitness (log ratio)” value is -1.95.
In the case of G120A U126C it was -0.356; in that of A24G G39A C70U A121G, -0.648.
In the case of C49G G69C U125G it was -3.42; in that of G52A C56U U59G C114U C124A G135C, -0.522; in that of C15A A37U G57A G61C, -3.97.
In the case of G39C A43G G48U U54G G93C G113A it was -5.27.
For the variant U132C, the “polymerase ribozyme fitness (log ratio)” value is -0.134.
Turning to C15G G93C, the “polymerase ribozyme fitness (log ratio)” value was -4.1.
For G47C A90G, the “polymerase ribozyme fitness (log ratio)” value was -1.06.
In the case of A46U G65A it was -4.9.
As for G60A G61C U92C G113A, the “polymerase ribozyme fitness (log ratio)” value was -3.6.
On to A6C U30G A43C C88U C97G U109G, for which the “polymerase ribozyme fitness (log ratio)” value is -6.22.
Take C72G G77U: the “polymerase ribozyme fitness (log ratio)” value is -1.71.
The figure for A43U A50U U81A A91G U92G is -3.02.
The figure for A75G G128A is -1.5.
Consider C62U A108C G117U C124A, for which the “polymerase ribozyme fitness (log ratio)” value is -6.3.
The figure for G57C G58A A83U C86A G117U C123U is -6.95.
The figure for C56A C76A is -0.802.
As to U7G G63A C102U, the “polymerase ribozyme fitness (log ratio)” value is -3.01.
In the case of C4U C56A C114A C124U it was -3.31.
The figure for U9G A83C is 0.502.
Turning to A90G C99U U106C, the “polymerase ribozyme fitness (log ratio)” value was -2.51.
The figure for A50U G61U C94A G110U is -4.5; for C13G A29C U54A A105C U106A it is -3.03; for U30C A43U it is -4.23.
The figure for G10C G57C is -0.669.
As for C80U C115A G120A U125A, the “polymerase ribozyme fitness (log ratio)” value was -1.71.
The figure for G93C U130C is -0.714; for G42A G60U it is -2.08; for G61U G63C it is -3.05.
In the case of C8U U78C U109A it was -5.42; in that of C86A G93C, -2.88.
The figure for C20U C56U C70U A84U U130C is -2.96; for U14G C15G U33G C40A C114G U130C it is -5.88.
On to G60U C86A, for which the “polymerase ribozyme fitness (log ratio)” value is -0.471.
In the case of C22A C70G A111C G113C it was -6.22.
In the case of U81A C101A G110C U131G G135U it was -7.53; in that of A2C U112A, -0.421; in that of G10U C15G G61A, -1.63.
As for U32C G48U C101U A118G, the “polymerase ribozyme fitness (log ratio)” value was -3.71.
Turning to U38A U59G A83C, the “polymerase ribozyme fitness (log ratio)” value was -1.75.
The figure for C8U U9G C12A G58A is 0.43; for C22U G71A it is -3.86; for U30G G60C U112A G127U U129G it is -5.06.
For the variant G35A C123A, the “polymerase ribozyme fitness (log ratio)” value was -3.41.
The figure for G69U C115U is -0.095.
